US20060105403A1 (published 2006)

Assays:
[1] = target: T1, murine ACC-α (acetyl-Coenzyme-A carboxylase, α form), endogenous protein of murine cell lysates (murine, UniProt Q5SWU9 1-2345); assay: GST co-sedimentation in a lysate of murine fibroblasts
Description: The inventors have shown that the tandem of the two BRCT domains was necessary and sufficient for the formation of this complex. Moreover, the inventors have shown that the formation of this complex was conserved in the human cells, using a GST-human BRCT fusion protein in co-sedimentation experiments similar to those cited above.
(§1) The proteins for fusion with GST were synthesised in Escherichia coli, strain JM 109 (Promega) transformed with pGEX-4T-1, pGEX-BRCT, pGEX-BRCT A, pGEX-BRCT B, pGEX-BRCT L, pGEX-BRCT M or pGEX-BRCTh as well as the mutated forms of BRCTh (A1708E, P1749R, M1775R, R1835X and Y1853X). They were purified by affinity chromatography on Glutathione-Sepharose. The test of binding by co-sedimentation was carried out in vitro by incubating cellular lysates in the presence of non-recombinant GST proteins or GST fusion proteins and Glutathione-Sepharose beads. 10 μg of GST or fusion GST were used in each binding test. The protein complexes were carefully washed (50 mM Tris HCl pH 7.6, 100 mM KCl, 0.05% Tween 20, 1 mM DTT, 0.2 mM PMSF) to eliminate the non-specific protein interactions and released by heating at 100° C. in loading buffer 5× SDS-PAGE and 100 mM DTT. The proteins were analysed by SDS-PAGE and visualised by autoradiography, staining with silver (Bio-Rad SilverStain) or staining with Coomassie blue according to the nature of the lysate used

[2] = target: T1, murine ACC-α (acetyl-Coenzyme-A …); assay: GST co-sedimentation, Western blot with streptavidin-peroxidase
Description: as §1
In order to map the domain of interaction of ACC-α on the BRCT tandem of Brca1, co-sedimentation tests with six distinct fusion proteins were carried out. The protein complexes of co-sedimentation were resolved by SDS-PAGE and visualised by Western Blot. The ACC protein containing the biotin was detected using peroxidase coupled with streptavidin, and as streptavidin has a high affinity for biotin it is therefore a very sensitive probe for detecting ACC-α (Witters, L. A. et al, 1994). […] However, the fragment GST-BRCT A which lacks the sequences of the domain B of BRCT is incapable of combining with ACC-α.

[3] = target: T1, murine ACC-α (acetyl-Coenzyme-A …); assay: GST co-sedimentation on NIH3T3 lysate
[4] = target: T1, murine ACC-α (acetyl-Coenzyme-A …); assay: GST co-sedimentation with the mutated tandem
Description: as §1
Numerous familial mutations have been found in the carboxy-terminal segment of BRCA1. One of these, R1835X, localised in the distal domain of BRCT, introduces a non-sense codon which suppresses the last 29 amino acids of Brca1 and thus breaks the second BRCT domain. […]

Binder | binding result [2] | further results
GST-BRCT (GST fusion protein containing amino acids 1583 to 1812 of murine Brca1) (other, Made in E. coli and held on glutathione-Sepharose beads; also called murine BRCT tandem; BRCT tandem of Brca1; not shown: glutathione S-transferase (GST) encoded by pGEX-4T-1 (Amersham Pharmacia Biotech)) TSSEERADRDISMVVSGLTPKEVMTVQKFAEKYRLTLTDAITEETTHVIIKTDAEFVCERTLKYFLGIAGGKWIVSYSWVVRSIQERRLLNVHEFEVKGDVVTGRNHQGPRRSRESREKLFKGLQVYCCEPFTNMPKDELERMLQLCGASVVKELPSLTHDTGAHLVVIVQPSAWTEDSNCPDIGQLCKARLVMWDWVLDSLSSYRCRGLDAYLVQNITCDSSEPQDSND | – | binding result [1]: binds
GST-Brca1 N (GST fusion containing the 220 N-terminal residues of murine Brca1) (other, also called GST fusion protein expressing the 220 amino-terminal residues of the murine Brca1 protein; not shown: glutathione S-transferase (GST); the vector for this construct is not described) MDLSAVQIQEVQNVLHAMQKILECPICLELIKEPVSTKCDHIFCKFCMLKLLNQKKGPSQCPLCKNEITKRSLQGSTRFSQLAEELLRIMAAFELDTGMQLTNGFSFSKKRNNSCERLNEEASIIQSVGYRNRVRRLPQVEPGNATLKDSLGVQLSNLGIVRSVKKNRQTQPRKKSVYIELDSDSSEETVTKPGDCSVRDQELLQTAPQEAGDEGKLHSA | no binding (tested: 10 µg of fusion GST per binding test) | –
GST-BRCT B (GST fusion with the second BRCT module of murine Brca1 alone) (other, also called BRCT B module alone; pGEX-BRCT B product; not shown: GST carrier and vector linker of pGEX-4T-1 at the N end) REKLFKGLQVYCCEPFTNMPKDELERMLQLCGASVVKELPSLTHDTGAHLVVIVQPSAWTEDSNCPDIGQLCKARLVMWDWVLDSLSSYRCRGLDAYLVQNITCDSSEPQDSND | no binding (tested: 10 µg of fusion GST per binding test) | –
GST-BRCTh (GST fusion with the human form of the BRCT tandem of BRCA1) (other, also called GST-human BRCT fusion protein; human BRCT tandem; not shown: glutathione S-transferase (GST) encoded by the pGEX vector) TASTERVNKRMSMVVSGLTPEEFMLVYKFARKHHITLTNLITEETTHVVMKTDAEFVCERTLKYFLGIAGGKWVVSYFWVTQSIKERKMLNEHDFEVRGDVVNGRNHQGPKRARESQDRKIFRGLEICCYGPFTNMPTDQLEWMVQLCGASVVKELSSFTLGTGVHPIVVVQPDAWTEDNGFHAIGQMCEAPVVTREWVLDSVALYQCQELDTYLIPQIPHSHY | – | binding result [3]: binds
GST-BRCT A (GST fusion with the first BRCT module of murine Brca1 alone) (other, It uses the same forward primer as GST-BRCT, so it probably starts at residue 1583; also called BRCT A module alone; pGEX-BRCT A product; not shown: GST carrier and vector linker of pGEX-4T-1 at the N end) TSSEERADRDISMVVSGLTPKEVMTVQKFAEKYRLTLTDAITEETTHVIIKTDAEFVCERTLKYFLGIAGGKWIVSYSWVVRSIQERRLLNVHEFEVKGDVVTGRNHQGPRRSRESREKLFKG | no binding (tested: 10 µg of fusion GST per binding test) | –
GST-BRCT M (GST-BRCT of murine Brca1 with the non-sense mutation W1777X) (other, also called mutated tandem; pGEX-BRCT M product; not shown: GST carrier and vector linker of pGEX-4T-1 at the N end) TSSEERADRDISMVVSGLTPKEVMTVQKFAEKYRLTLTDAITEETTHVIIKTDAEFVCERTLKYFLGIAGGKWIVSYSWVVRSIQERRLLNVHEFEVKGDVVTGRNHQGPRRSRESREKLFKGLQVYCCEPFTNMPKDELERMLQLCGASVVKELPSLTHDTGAHLVVIVQPSAWTEDSNCPDIGQLCKARLVM | – | binding result [4]: no binding (tested: 10 µg of fusion GST per binding test)
GST-BRCT L (GST fusion containing residues 1512-1812 of murine Brca1) (other, also called longer form of the murine BRCT domain; pGEX-BRCT L product; not shown: glutathione S-transferase (GST) encoded by pGEX-4T-1) EGTPYLGSGISLFSSRDPESESPKEPAHIGTTPASTSALKIPQGQVAFRSAAAAGADKAVVGIVSKIKPELTSSEERADRDISMVVSGLTPKEVMTVQKFAEKYRLTLTDAITEETTHVIIKTDAEFVCERTLKYFLGIAGGKWIVSYSWVVRSIQERRLLNVHEFEVKGDVVTGRNHQGPRRSRESREKLFKGLQVYCCEPFTNMPKDELERMLQLCGASVVKELPSLTHDTGAHLVVIVQPSAWTEDSNCPDIGQLCKARLVMWDWVLDSLSSYRCRGLDAYLVQNITCDSSEPQDSND | binds | –
